From publication PMC5636754, “Structural and biochemical characterization of DAXX-ATRX interaction” (Protein & Cell, 2017)

B1: ATRX_(1,265–1,285), α-helix frame only (αDID), wild type peptide [human] / DAXX helical bundle (DHB) domain of death domain-associated protein (DAXX), aa 55-144 [not stated] (parent complex)
chain 1: NDPENRIAKKMLLEEIKANLS
chain 2: GKKCYKLENEKLFEEFLELCKMQTADHPEVVPFLYNRQQRAHSLFLASAEFCNILSRVLSRARSRPAKLYVYINELCTVLKAHSAKKKLN

Variants of: B1
Assay: ITC

| Variant | Kd [µM] |
| --- | --- |
| chain 1 E15Q | 3.2 |
| chain 1 D2N | 7 |
| chain 1 E4Q | 5.6 |
| chain 1 K9A | 2.3 |
